Experiment in all cases: SPR
On the technique in general: Surface plasmon resonance follows binding to a sensor surface in real time, without labels.

Experiment [1] has as its target T1, Recombinant human IL-17A (human, UniProt Q16552 20-155, limits assumed).
T1 sequence (Q16552 20-155 limits assumed): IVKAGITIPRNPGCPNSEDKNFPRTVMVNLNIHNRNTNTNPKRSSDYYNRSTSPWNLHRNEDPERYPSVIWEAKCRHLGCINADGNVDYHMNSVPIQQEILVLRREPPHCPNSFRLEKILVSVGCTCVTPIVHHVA
Experiment [2] concerns the target T1, Recombinant human IL-17A. This is another data set of the same source.
Experiment [3] addresses T2, Recombinant human IL-17A (human, UniProt Q16552 20-155, limits assumed). This is another data set of the same source.
T2 sequence (Q16552 20-155 limits assumed): as above
Experiment [4] deals with T2, Recombinant human IL-17A. This is another data set of the same source.
The target in experiment [5] is T3, His-tagged recombinant human CD-19 (human, UniProt P15391 20-291, limits assumed).
T3 sequence (looked up): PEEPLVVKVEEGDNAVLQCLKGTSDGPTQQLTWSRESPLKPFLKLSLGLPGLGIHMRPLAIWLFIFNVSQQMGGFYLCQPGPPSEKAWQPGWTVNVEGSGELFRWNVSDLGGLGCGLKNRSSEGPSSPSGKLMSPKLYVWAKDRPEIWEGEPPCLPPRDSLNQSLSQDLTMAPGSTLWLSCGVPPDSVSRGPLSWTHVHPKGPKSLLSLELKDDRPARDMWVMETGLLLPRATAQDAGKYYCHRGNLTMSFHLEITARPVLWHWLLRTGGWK

Experiment [6] concerns the target T3, His-tagged recombinant human CD-19. The source holds these as a separate data set.
Experiment [7] concerns the target T4, His-tagged recombinant human CD-19 (human, UniProt P15391 20-291, limits assumed).
T4 sequence (looked up): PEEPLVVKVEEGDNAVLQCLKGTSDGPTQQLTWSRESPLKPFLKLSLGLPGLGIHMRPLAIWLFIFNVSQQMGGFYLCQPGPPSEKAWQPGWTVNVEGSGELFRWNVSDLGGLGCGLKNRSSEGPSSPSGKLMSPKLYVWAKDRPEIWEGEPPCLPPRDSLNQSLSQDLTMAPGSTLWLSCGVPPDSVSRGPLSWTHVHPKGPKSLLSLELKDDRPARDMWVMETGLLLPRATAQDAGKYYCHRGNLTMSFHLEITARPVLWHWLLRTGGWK
This is another data set of the same source.

Experiment [8] has as its target T4, His-tagged recombinant human CD-19. The source holds these as a separate data set.

Read-outs that look alike come from different tables or passages of the source.

One may read the Kd as the equilibrium constant for the complex coming apart.

B1: Design 2979 bispecific antibody, System A (CAT-2200 H1/L1 & Pertuzumab H2/L2) (bispecific antibody)
chain 1: not shown
chain 2: NFMLTQPHSVSESPGKTVTISCTRSSGSLANYYVQWYQQRPGSSPTIVIFANNQRPSGVPDRFSGSIDSSSNSASLTISGLKTEDEADYYCQTYDPYSVVFGGGTKLTVLGQPKAAPSVTLFPPSSEELQANKATLVCLISDFYPGAVTVAWKADSSPVKAGVETTTPSKQSNNKYAAESELSLTPEQWKSHRSYSCQVTHEGSTVEKTVAPTECS
chain 3: not shown
chain 4: DIQMTQSPSSLSASVGDRVTITCKASQDVSIGVAWYQQKPGKAPKLLIYSASYRYTGVPSRFSGSGSGTDFTLTISSLQPEDFATYYCQQYYIYPYTFGQGTKVEIKRTVAAPSVFIFPPSDEQLKSGTARVGCLLNNFYPREAKVQWKVDNALQSGNSQESVTEQDSKDSTYSLRSTLTLSKADYEKHKVYACEVTHQGLSSPVTKSFNRGEC
In the case of B1, the Kd with Recombinant human IL-17A [1] turned out to be 0.31 nM. Moreover, in the experiment with Recombinant human IL-17A [2], the “Difference in H1L1 log(KD) from wild type” value (shortened to “Difference in H1L1 log(KD)”) was -0.03.

B2: Design 3967 bispecific antibody, System A (CAT-2200 H1/L1 & Pertuzumab H2/L2) (bispecific antibody)
chain 1: not shown
chain 2: NFMLTQPHSVSESPGKTVTISCTRSSGSLANYYVQWYQQRPGSSPTIVIFANNQRPSGVPDRFSGSIDSSSNSASLTISGLKTEDEADYYCQTYDPYSVVFGGGTKLTVLGQPKAAPSVTLFPPSDEELQANTATLVCLISDFYPGAVTVAWKADSSPVKAGVETTTPSKQSNNKYAAESELSLTPEQWKSHRSYSCQVTHEGSTVEKTVAPTECS
chain 3: not shown
chain 4: DIQMTQSPSSLSASVGDRVTITCKASQDVSIGVAWYQQKPGKAPKLLIYSASYRYTGVPSRFSGSGSGTDFTLTISSLQPEDFATYYCQQYYIYPYTFGQGTKVEIKRTVAAPSVFIFPPKDERLKSGTASVVCLLNNFYPREAKVQWKVDNALQSGNSQESVTEQDSKDSTYSLSSRLTLSKADYEKHKVYACEVTHQGLSSPVTKSFNRGEC
In the case of B2, the Kd with Recombinant human IL-17A [3] was 0.37 nM. Besides, the “Difference in H1L1 log(KD)” value in the experiment with Recombinant human IL-17A [4] is -0.11 log(KD).

B3: Design 3931 bispecific antibody, System B (CAT-2200 H1/L1 & SGN-CD19a H2/L2) (bispecific antibody)
chain 1: not shown
chain 2: NFMLTQPHSVSESPGKTVTISCTRSSGSLANYYVQWYQQRPGSSPTIVIFANNQRPSGVPDRFSGSIDSSSNSASLTISGLKTEDEADYYCQTYDPYSVVFGGGTKLTVLGQPKAAPSVTLFPPSSEELQANKATLVCLISDFYPGAVTVAWKADSSPVKAGVETTTPSKQSNNKYAASSKLSLTPEQWKSHRSYSCQVTHEGSTVEKTVAPTECS
chain 3: not shown
chain 4: EIVLTQSPATLSLSPGERATLSCSASSSVSYMHWYQQKPGQAPRLLIYDTSKLASGIPARFSGSGSGTDFTLTISSLEPEDFAVYYCFQGSVYPFTFGQGTKLEIKRTVAAPSVFIFPPSDEQLKSGTASVGCLLNNFYPREAKVQWKVDNALQSGNSQESVTEQDSKDSTYSLDSTLTLSKADYEKHKVYACEVTHQGLSSPVTKSFNRGEC
On to B3, for which the Kd in the experiment with Recombinant human IL-17A [3] was 0.29 nM; in experiment [5] it was 54.9 nM. Further, the “Difference in H1L1 log(KD)” value with Recombinant human IL-17A [4] is 0.11 log(KD). In addition, the “Difference in H2L2 log(KD) from wild type” value (from here on “Difference in H2L2 log(KD)”) in experiment [6] was 0.09 log(KD).

B4: Design 2979 bispecific antibody, System B (CAT-2200 H1/L1 & SGN-CD19a H2/L2) (bispecific antibody)
chain 1: not shown
chain 2: NFMLTQPHSVSESPGKTVTISCTRSSGSLANYYVQWYQQRPGSSPTIVIFANNQRPSGVPDRFSGSIDSSSNSASLTISGLKTEDEADYYCQTYDPYSVVFGGGTKLTVLGQPKAAPSVTLFPPSSEELQANKATLVCLISDFYPGAVTVAWKADSSPVKAGVETTTPSKQSNNKYAAESELSLTPEQWKSHRSYSCQVTHEGSTVEKTVAPTECS
chain 3: not shown
chain 4: EIVLTQSPATLSLSPGERATLSCSASSSVSYMHWYQQKPGQAPRLLIYDTSKLASGIPARFSGSGSGTDFTLTISSLEPEDFAVYYCFQGSVYPFTFGQGTKLEIKRTVAAPSVFIFPPSDEQLKSGTARVGCLLNNFYPREAKVQWKVDNALQSGNSQESVTEQDSKDSTYSLRSTLTLSKADYEKHKVYACEVTHQGLSSPVTKSFNRGEC
Consider B4, for which the Kd in the experiment with Recombinant human IL-17A [1] stood at 0.39 nM; in experiment [7] it was 149 nM. In addition, the “Difference in H1L1 log(KD)” value with Recombinant human IL-17A [2] was -0.14. Further, the “Difference in H2L2 log(KD)” value in experiment [8] is 0.18.

B5: Design 2994 bispecific antibody, System B (CAT-2200 H1/L1 & SGN-CD19a H2/L2) (bispecific antibody)
chain 1: not shown
chain 2: NFMLTQPHSVSESPGKTVTISCTRSSGSLANYYVQWYQQRPGSSPTIVIFANNQRPSGVPDRFSGSIDSSSNSASLTISGLKTEDEADYYCQTYDPYSVVFGGGTKLTVLGQPKAAPSVTLFPPSSEQLQANKAKLVCLISDFYPGAVTVAWKADSSPVKAGVETTTPSKQSNNKYAASSYLSLTPEQWKSHRSYSCQVTHEGSTVEKTVAPTECS
chain 3: not shown
chain 4: EIVLTQSPATLSLSPGERATLSCSASSSVSYMHWYQQKPGQAPRLLIYDTSKLASGIPARFSGSGSGTDFTLTISSLEPEDFAVYYCFQGSVYPFTFGQGTKLEIKRTVAAPSVFIFPPSDEELKSGTASVDCLLNNFYPREAKVQWKVDNALQSGNSQESVTEQDSKDSTYSLSSTLTLSKADYEKHKVYACEVTHQGLSSPVTKSFNRGEC
On to B5, for which the Kd in the experiment with Recombinant human IL-17A [3] was found to be 0.28 nM; in experiment [5] it was 49.7 nM. Further, the “Difference in H1L1 log(KD)” value in the experiment with Recombinant human IL-17A [4] was 0.12 log(KD). In addition, the “Difference in H2L2 log(KD)” value in experiment [6] is 0.16 log(KD).

B6: Design 3931 bispecific antibody, System A (CAT-2200 H1/L1 & Pertuzumab H2/L2) (bispecific antibody)
chain 1: not shown
chain 2: NFMLTQPHSVSESPGKTVTISCTRSSGSLANYYVQWYQQRPGSSPTIVIFANNQRPSGVPDRFSGSIDSSSNSASLTISGLKTEDEADYYCQTYDPYSVVFGGGTKLTVLGQPKAAPSVTLFPPSSEELQANKATLVCLISDFYPGAVTVAWKADSSPVKAGVETTTPSKQSNNKYAASSKLSLTPEQWKSHRSYSCQVTHEGSTVEKTVAPTECS
chain 3: not shown
chain 4: DIQMTQSPSSLSASVGDRVTITCKASQDVSIGVAWYQQKPGKAPKLLIYSASYRYTGVPSRFSGSGSGTDFTLTISSLQPEDFATYYCQQYYIYPYTFGQGTKVEIKRTVAAPSVFIFPPSDEQLKSGTASVGCLLNNFYPREAKVQWKVDNALQSGNSQESVTEQDSKDSTYSLDSTLTLSKADYEKHKVYACEVTHQGLSSPVTKSFNRGEC
As for B6, the Kd with Recombinant human IL-17A [3] was found to be 0.44 nM. Moreover, the “Difference in H1L1 log(KD)” value in the experiment with Recombinant human IL-17A [4] is -0.07 log(KD).

B7: Design 3113 bispecific antibody, System A (CAT-2200 H1/L1 & Pertuzumab H2/L2) (bispecific antibody)
chain 1: not shown
chain 2: NFMLTQPHSVSESPGKTVTISCTRSSGSLANYYVQWYQQRPGSSPTIVIFANNQRPSGVPDRFSGSIDSSSNSASLTISGLKTEDEADYYCQTYDPYSVVFGGGTKLTVLGQPKAAPSVTLFPPSSEELQANKATLDCLISDFYPGAVTVAWKADSSPVKAGVETTTPSKQSNNKYAASSTLSLTPEQWKSHRSYSCQVTHEGSTVEKTVAPTECS
chain 3: not shown
chain 4: DIQMTQSPSSLSASVGDRVTITCKASQDVSIGVAWYQQKPGKAPKLLIYSASYRYTGVPSRFSGSGSGTDFTLTISSLQPEDFATYYCQQYYIYPYTFGQGTKVEIKRTVAAPSVFIFPPSDEQLKSGTARVGCLLNNFYPREAKVQWKVDNALQSGNSQESVTEQDSKDSTYSLRSTLTLSKADYEKHKVYACEVTHQGLSSPVTKSFNRGEC
Turning to B7, the Kd with Recombinant human IL-17A [1] was 0.39 nM. The “Difference in H1L1 log(KD)” value with Recombinant human IL-17A [2] was -0.14.

B8: Design 2994 bispecific antibody, System A (CAT-2200 H1/L1 & Pertuzumab H2/L2) (bispecific antibody)
chain 1: not shown
chain 2: NFMLTQPHSVSESPGKTVTISCTRSSGSLANYYVQWYQQRPGSSPTIVIFANNQRPSGVPDRFSGSIDSSSNSASLTISGLKTEDEADYYCQTYDPYSVVFGGGTKLTVLGQPKAAPSVTLFPPSSEQLQANKAKLVCLISDFYPGAVTVAWKADSSPVKAGVETTTPSKQSNNKYAASSYLSLTPEQWKSHRSYSCQVTHEGSTVEKTVAPTECS
chain 3: not shown
chain 4: DIQMTQSPSSLSASVGDRVTITCKASQDVSIGVAWYQQKPGKAPKLLIYSASYRYTGVPSRFSGSGSGTDFTLTISSLQPEDFATYYCQQYYIYPYTFGQGTKVEIKRTVAAPSVFIFPPSDEELKSGTASVDCLLNNFYPREAKVQWKVDNALQSGNSQESVTEQDSKDSTYSLSSTLTLSKADYEKHKVYACEVTHQGLSSPVTKSFNRGEC
Take B8: the Kd in the experiment with Recombinant human IL-17A [3] is 0.45 nM. In addition, in the experiment with Recombinant human IL-17A [4], the “Difference in H1L1 log(KD)” value is -0.08 log(KD).

B9: Design 3967 bispecific antibody, System B (CAT-2200 H1/L1 & SGN-CD19a H2/L2) (bispecific antibody)
chain 1: not shown
chain 2: NFMLTQPHSVSESPGKTVTISCTRSSGSLANYYVQWYQQRPGSSPTIVIFANNQRPSGVPDRFSGSIDSSSNSASLTISGLKTEDEADYYCQTYDPYSVVFGGGTKLTVLGQPKAAPSVTLFPPSDEELQANTATLVCLISDFYPGAVTVAWKADSSPVKAGVETTTPSKQSNNKYAAESELSLTPEQWKSHRSYSCQVTHEGSTVEKTVAPTECS
chain 3: not shown
chain 4: EIVLTQSPATLSLSPGERATLSCSASSSVSYMHWYQQKPGQAPRLLIYDTSKLASGIPARFSGSGSGTDFTLTISSLEPEDFAVYYCFQGSVYPFTFGQGTKLEIKRTVAAPSVFIFPPKDERLKSGTASVVCLLNNFYPREAKVQWKVDNALQSGNSQESVTEQDSKDSTYSLSSRLTLSKADYEKHKVYACEVTHQGLSSPVTKSFNRGEC
Take B9: the Kd stood at 0.38 nM with Recombinant human IL-17A [3] and 36.1 nM in experiment [5]. Also, in the experiment with Recombinant human IL-17A [4], the “Difference in H1L1 log(KD)” value is -0.13 log(KD). Further, in experiment [6], the “Difference in H2L2 log(KD)” value is 0.27 log(KD).
